Reference: PMC8934265

Key:
[1] = target: T1, NFYA-1 (T08D10.1), MBP fusion;NFYB-1, MBP fusion;NFYC-1, MBP fusion (Caenorhabditis elegans;Caenorhabditis …, UniProt G5EEG1;O17286;O17072 1-482;1-403;1-232, ||); assay: EMSA
T1 sequence 1: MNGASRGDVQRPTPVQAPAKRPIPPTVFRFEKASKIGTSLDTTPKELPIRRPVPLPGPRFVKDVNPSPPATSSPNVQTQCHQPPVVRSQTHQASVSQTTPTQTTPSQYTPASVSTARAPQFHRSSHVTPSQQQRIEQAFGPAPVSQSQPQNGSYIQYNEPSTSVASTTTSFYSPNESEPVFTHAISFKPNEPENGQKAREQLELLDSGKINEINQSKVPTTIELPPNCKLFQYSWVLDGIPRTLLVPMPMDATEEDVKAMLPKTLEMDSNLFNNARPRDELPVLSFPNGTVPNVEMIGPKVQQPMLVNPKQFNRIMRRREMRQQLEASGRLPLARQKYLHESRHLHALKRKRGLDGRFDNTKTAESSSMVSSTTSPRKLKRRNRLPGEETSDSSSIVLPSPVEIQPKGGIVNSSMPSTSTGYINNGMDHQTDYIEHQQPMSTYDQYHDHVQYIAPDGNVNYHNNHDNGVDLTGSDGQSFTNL
T1 sequence 2: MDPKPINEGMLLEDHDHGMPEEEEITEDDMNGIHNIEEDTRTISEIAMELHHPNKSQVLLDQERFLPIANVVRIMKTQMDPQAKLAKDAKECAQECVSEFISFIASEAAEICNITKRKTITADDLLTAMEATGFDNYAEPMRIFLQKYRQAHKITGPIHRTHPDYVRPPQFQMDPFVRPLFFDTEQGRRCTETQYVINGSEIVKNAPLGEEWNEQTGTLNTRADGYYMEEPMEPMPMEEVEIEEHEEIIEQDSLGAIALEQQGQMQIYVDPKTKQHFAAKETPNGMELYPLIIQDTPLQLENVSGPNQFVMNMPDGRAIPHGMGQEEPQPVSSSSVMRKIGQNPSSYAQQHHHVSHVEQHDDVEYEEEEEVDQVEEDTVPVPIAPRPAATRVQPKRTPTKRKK
T1 sequence 3: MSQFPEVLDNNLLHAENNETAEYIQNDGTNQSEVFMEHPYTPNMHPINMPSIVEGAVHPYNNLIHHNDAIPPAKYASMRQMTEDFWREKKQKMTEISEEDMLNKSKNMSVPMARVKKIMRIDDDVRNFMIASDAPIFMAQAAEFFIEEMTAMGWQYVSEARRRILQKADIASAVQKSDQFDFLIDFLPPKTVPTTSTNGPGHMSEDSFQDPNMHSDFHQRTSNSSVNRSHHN

[2] = target: T1, NFYA-1 (T08D10.1), MBP fusion;NFYB-1, …; assay: competition
[3] = target: T1, NFYA-1 (T08D10.1), MBP fusion;NFYB-1, …; assay: competition; remark: listed apart in the source

B1: CCAAT box probe (dsDNA)
DNA 1: AGTTGTAGGCCTCTGCTTCCTGACCAATCTACAGAATAGGCTCCGCCTTC
DNA 2: AGTTGAAGGCGGAGCCTATTCTGTAGATTGGTCAGGAAGCAGAGGCCTAC
binding result [1]: binds

B2: CCAAT box mutant competitor (+mut) (dsDNA)
DNA 1: AGTTGTAGGCCTCTGCTTCCTGACATGTCTACAGAATAGGCTCCGCCTTC
DNA 2: AGTTGAAGGCGGAGCCTATTCTGTAGACATGTCAGGAAGCAGAGGCCTAC
binding result [2]: no binding

B3: CCAAT box wild-type competitor (+CAAT) (dsDNA)
DNA 1: AGTTGTAGGCCTCTGCTTCCTGACCAATCTACAGAATAGGCTCCGCCTTC
DNA 2: AGTTGAAGGCGGAGCCTATTCTGTAGATTGGTCAGGAAGCAGAGGCCTAC
binding result [3]: binds
